Legend:
[1] = biological target: DRT9 reverse transcriptase (DRT9-RT protein), wild type, in complex with its ncRNA (Escherichia coli); experiment: cryo-EM structure; DRT9 RT-ncRNA complex without dNTPs, 2 mg/ml; 3.49 Å
[2] = biological target: DRT9 reverse transcriptase (DRT9-RT protein), wild type, in complex with its ncRNA (Escherichia coli); experiment: cryo-EM structure; DRT9 RT-ncRNA complex (2 mg/ml) with 1 mM of each dNTP, 25 mM Tris-HCl pH 7.5, 150 mM NaCl, 5 mM MgCl2, room temperature 1 h; 3.46 Å

“DRT9 reverse transcriptase (DRT9-RT protein), wild type, in complex with its ncRNA (enzyme)” showed a fraction of particles that are hexamers (without dNTPs) [1] of 13%, a stoichiometry N [1] of 4 and a stoichiometry N [2] of 6.
